Experimental findings from PMC10331576 (2023) are described below.

The target in this assay is COVID-2019-Spike-328-585 (RBD) (SARS-CoV-2, UniProt P0DTC2 328-585). Nature of the assay: BLI. Background: Biolayer interferometry detects binding as a change in optical thickness at a sensor tip.

B1: DC-SIGN.Fc (Fc fusion)
chain: QVSKVPSSISQEQSRQDAIYQNLTQLKAAVGELSEKSKLQEIYQELTQLKAAVGELPEKSKLQEIYQELTRLKAAVGELPEKSKLQEIYQELTWLKAAVGELPEKSKMQEIYQELTRLKAAVGELPEKSKQQEIYQELTRLKAAVGELPEKSKQQEIYQELTRLKAAVGELPEKSKQQEIYQELTQLKAAVERLCHPCPWEWTFFQGNCYFMSNSQRNWHDSITACKEVGAQLVVIKSAEEQNFLQLQSSRSNRFTWMGLSDLNQEGTWQWVDGSPLLPSFKQYWNRGEPNNVGEEDCAEFSGNGWNDDKCNLAKFWICKKSAASCSRDEEQFLSPAPATPNPPPA
As usually defined, the koff is the rate constant with which the complex falls apart. Turning to B1, the koff came out at 0.000614 s⁻¹.
